In one assay the target is T1, mouse LIFR-ECD protein (mouse, UniProt P42703 44-828).
T1 construct: extracellular domain
T1 sequence (looked up): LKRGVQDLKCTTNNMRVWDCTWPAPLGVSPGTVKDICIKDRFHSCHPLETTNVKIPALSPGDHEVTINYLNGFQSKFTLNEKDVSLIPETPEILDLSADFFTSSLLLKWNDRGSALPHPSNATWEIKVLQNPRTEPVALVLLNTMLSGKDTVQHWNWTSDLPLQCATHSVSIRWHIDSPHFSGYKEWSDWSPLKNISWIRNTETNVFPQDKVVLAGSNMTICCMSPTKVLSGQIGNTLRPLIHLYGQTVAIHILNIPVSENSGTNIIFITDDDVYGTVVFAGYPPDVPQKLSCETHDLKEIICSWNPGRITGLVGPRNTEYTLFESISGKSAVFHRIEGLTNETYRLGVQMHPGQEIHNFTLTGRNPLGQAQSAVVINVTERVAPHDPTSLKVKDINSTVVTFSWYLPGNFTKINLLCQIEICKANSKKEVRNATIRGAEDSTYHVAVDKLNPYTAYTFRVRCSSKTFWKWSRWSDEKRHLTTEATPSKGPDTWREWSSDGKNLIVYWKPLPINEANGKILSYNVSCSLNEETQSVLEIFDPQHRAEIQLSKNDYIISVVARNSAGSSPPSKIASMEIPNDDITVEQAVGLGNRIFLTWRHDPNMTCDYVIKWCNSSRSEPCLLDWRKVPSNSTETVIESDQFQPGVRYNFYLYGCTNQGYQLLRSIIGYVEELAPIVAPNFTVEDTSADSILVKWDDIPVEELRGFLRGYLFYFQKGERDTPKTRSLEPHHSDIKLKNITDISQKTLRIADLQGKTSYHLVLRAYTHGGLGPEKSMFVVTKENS
As to the kind of experiment: ELISA on plate-coated mouse LIFR-ECD (1 ug/mL), anti-human IgG Fc-HRP, OD450nm. The protocol:
The binding ability of the 15 antibodies prepared in examples 1-4 of the present invention to the LIFR-ECD protein was detected based on the ELISA assay method. The binding affinity of different antibodies was determined by comparing their dose response binding curves to LIFR-ECD protein. The specific experimental process is as follows: First, human LIFR-ECD, monkey LIFR-ECD and mouse LIFR-ECD proteins are diluted to a concentration of 1 μg/mL, added to a 96-well plate (100 μL per well) and placed at 4° C. overnight. The 96-well plates were washed three times with PBST solution and then placed at 37° C. for 1 h with the addition of 2% BSA in PBS solution. Antibody seris dilution is prepared and (100 nM, 10-fold-dilution), added to a 96-well plate and incubate at 37° C. for 1 h. After washing three times with PBST solution, add anti-human IgG Fc-HRP secondary antibody (for 5000× dilution) and incubate at 37° C. for 30-60 min. After washing three times with PBST solution, add TMB color development solution for 5-15 minutes, and then add termination solution to ternimate the color development.
(An ELISA detects its analyte on a solid surface through an enzyme-linked reagent.)

Assay [1] has as its target T2, human LIFR expressed on the surface of 293T cells (human, UniProt P42702 45-1097).
T2 construct: whole, on cells; also called HEK293T-huLIFR; huLIFR
T2 sequence (looked up): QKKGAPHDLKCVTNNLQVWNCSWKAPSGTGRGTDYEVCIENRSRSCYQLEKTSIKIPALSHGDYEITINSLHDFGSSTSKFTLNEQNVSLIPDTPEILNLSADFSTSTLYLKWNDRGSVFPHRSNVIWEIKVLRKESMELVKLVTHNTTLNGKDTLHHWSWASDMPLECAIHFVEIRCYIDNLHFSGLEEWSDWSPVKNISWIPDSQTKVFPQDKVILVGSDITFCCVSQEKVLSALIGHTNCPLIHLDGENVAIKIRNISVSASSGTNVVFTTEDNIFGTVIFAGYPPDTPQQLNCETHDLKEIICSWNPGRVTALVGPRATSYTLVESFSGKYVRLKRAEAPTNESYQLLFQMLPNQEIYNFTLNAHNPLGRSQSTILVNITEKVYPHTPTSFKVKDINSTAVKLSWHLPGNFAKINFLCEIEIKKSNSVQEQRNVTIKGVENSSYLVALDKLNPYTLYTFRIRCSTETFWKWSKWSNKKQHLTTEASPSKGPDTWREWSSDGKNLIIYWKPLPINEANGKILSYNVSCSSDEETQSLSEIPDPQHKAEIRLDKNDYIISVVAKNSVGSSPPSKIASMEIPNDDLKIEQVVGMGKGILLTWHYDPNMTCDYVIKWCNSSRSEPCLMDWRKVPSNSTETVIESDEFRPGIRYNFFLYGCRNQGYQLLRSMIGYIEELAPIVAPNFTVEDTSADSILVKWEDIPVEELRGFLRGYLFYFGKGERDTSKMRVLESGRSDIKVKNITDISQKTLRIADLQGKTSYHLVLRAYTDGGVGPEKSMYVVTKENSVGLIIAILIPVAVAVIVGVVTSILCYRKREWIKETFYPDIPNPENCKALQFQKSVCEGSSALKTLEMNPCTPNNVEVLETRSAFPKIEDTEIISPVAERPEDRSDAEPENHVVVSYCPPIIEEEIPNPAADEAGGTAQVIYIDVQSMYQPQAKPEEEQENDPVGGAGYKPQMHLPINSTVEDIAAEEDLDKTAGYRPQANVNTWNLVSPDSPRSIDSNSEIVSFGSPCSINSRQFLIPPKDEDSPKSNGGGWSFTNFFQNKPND
Briefly: flow cytometry on HEK293T-huLIFR cells, median fluorescence, span of the fitted curve. (In flow cytometry, cells or beads pass a laser one at a time.)

In assay [2] the target is T3, human LIFR/gp130 heterodimer expressed on the surface of 293T cells (human, UniProt P42702 45-1097; P40189 23-918).
T3 construct: whole, on cells; also called HEK293T-huLIFR/gp130; huLIFR/gp130
As to the kind of experiment: flow cytometry on HEK293T-huLIFR/gp130 cells, median fluorescence, span of the fitted curve.

T3 sequence (P40189 23-918, one chain of several): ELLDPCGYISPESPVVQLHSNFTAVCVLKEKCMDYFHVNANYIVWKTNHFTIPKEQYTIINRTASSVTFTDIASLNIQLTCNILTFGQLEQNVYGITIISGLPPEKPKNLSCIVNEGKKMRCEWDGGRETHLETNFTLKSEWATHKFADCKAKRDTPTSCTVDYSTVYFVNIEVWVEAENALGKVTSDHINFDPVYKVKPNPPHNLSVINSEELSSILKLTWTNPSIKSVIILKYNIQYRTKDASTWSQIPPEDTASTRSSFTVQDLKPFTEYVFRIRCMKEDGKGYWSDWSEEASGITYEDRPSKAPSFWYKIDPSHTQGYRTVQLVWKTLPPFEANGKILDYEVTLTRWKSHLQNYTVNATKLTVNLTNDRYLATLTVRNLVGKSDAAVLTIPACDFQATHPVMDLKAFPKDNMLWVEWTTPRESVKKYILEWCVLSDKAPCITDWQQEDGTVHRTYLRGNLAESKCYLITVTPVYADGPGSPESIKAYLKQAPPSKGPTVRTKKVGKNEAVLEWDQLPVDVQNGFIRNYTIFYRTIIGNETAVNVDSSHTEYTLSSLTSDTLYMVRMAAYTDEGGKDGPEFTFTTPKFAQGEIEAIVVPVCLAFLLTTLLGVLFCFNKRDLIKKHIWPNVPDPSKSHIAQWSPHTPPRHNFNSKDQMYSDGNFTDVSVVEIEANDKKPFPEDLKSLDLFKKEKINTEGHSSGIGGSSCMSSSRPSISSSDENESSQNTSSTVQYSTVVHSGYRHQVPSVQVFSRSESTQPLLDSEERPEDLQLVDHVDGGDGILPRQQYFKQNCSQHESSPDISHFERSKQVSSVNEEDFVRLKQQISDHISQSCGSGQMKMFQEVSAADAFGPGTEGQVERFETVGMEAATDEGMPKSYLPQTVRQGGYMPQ

B1: PR301176 (antibody, IgG1, V domains shown)
VH: QVQLVESGGGVVQPGRSLRLSCAASGFTFSSYGMDWVRQAPGKGLEWVAVIWYDGSNKFYADSVRGRFTISRDNSQNTLYLQMNSLRAEDTAVYYCARELWFGELLSPFDFWGQGTLVTVSS
VL: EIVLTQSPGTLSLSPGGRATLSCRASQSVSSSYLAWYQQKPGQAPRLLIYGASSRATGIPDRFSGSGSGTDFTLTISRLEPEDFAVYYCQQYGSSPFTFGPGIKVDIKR
Regarding B1, the binding result with mouse LIFR-ECD protein is “no binding (tested: 100 nM)”.

B2: PR301152 (antibody, IgG1, V domains shown)
VH: QVQLVESGGGVVQPGRSLRLSCAASGFTFSSYGMDWVRQAPGKGLEWVAVIWYDGSNKYYADSVKGRFTISRDNSKNTLYLQMNSLRAEDTAVYYCARELWFGELLSPFDFWGQGTLVTVSS
VL: KIVLTQSPGTLSLSPGGRATLSCRASQSISSSYLAWYQQKPGQAPRLLIYAASNRATGIPDRFSGSGSGTDFTLTISRLEPEDFAVYYCQQYGSSPFTFGPGIKVDIKR
On to B2, for which the Span came out at 20100 in assay [1] and 7210 in assay [2]. For the same molecule, the binding result in the assay with mouse LIFR-ECD protein is “no binding (tested: 100 nM)”.

B3: PR301168 (antibody, IgG1, V domains shown)
VH: QVQLVESGGGVVQPGRSLRLSCAASGFTFSSYGMDWVRQAPGKGLEWVAVIWYDGSNKFYADSVRGRFTISRDNSQNTLYLQMNSLRAEDTAVYYCARELWFGELLSPLDFWGQGTLVTVSS
VL: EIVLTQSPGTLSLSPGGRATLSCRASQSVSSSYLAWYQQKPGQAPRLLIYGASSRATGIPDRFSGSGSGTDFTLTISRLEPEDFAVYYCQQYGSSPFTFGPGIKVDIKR
notes: also called PR3001168
For the molecule B3, the Span in assay [1] came to 19400; in assay [2] it was 6950. Further, the binding result with mouse LIFR-ECD protein is reported as “no binding (tested: 100 nM)”.

B4: PR301177 (antibody, human IgG1, kappa, V domains shown)
VH: QVQLVESGGGVVQPGRSLRLSCVASGFTFSSYGMNWVRQAPGKGLDWVTVIWFDGSNKYYADSVKGRFTISRDNSKNTLYLQMNSLRAEDTAMYYCARGERTLDLWGQGTLVTVSS
VL: DIQMTQSPSTLSASVGDRVTITCRASQSISSWLAWYQQKPGKAPKLLIYKASSLESGVPSRFSGSGSGTEFSFTISSLQPDDFATYYCQQYKSFSPGGLTFGGGTKVEIKR
Regarding B4, the binding result in the assay with mouse LIFR-ECD protein is “no binding (tested: 100 nM)”.

B5: PR301127 (antibody, human IgG1, kappa, V domains shown)
VH: EVQLLQSGGGLVQPGGSLRLSCAASGFTFSNYAMTWVRQAPGKGLEWVSTISGSGAFTYYADAVKGRFTISRVNSKNSLDLQMNSLRAEDTAVYYCAKGGILTGFDNWGQGTLVTVSS
VL: DIQMTQSPSTLSASVGDRVTITCRASQSISSWLAWYQQKPGKAPKLLIYKASSLESGVPSRFSGSGSGTEFSFTISSLQPDDFATYYCQQYKSFSPGGLTFGGGTKVEIKR
B5: the Span in assay [2] stood at 55.6.

B6: PR301153 (antibody, IgG1, V domains shown)
VH: QGQLVESGGGVVQPGRSLRLSCAASGFTFSSYGMHWVRQPPGKGLEWVAVIWFDGSNKYYADSVKGRFTISRDNSKNTVYLQMDSLRDEDTAVYYCARGQLVGDYWGQGTLVTVSS
VL: not shown
For B6, in the assay with mouse LIFR-ECD protein, the binding result is “no binding (tested: 100 nM)”.

B7: PR301215 (antibody, human IgG1, kappa, V domains shown)
VH: QVQLVESGGGVVQPGRSLRLSCAASGFTFSSYGMHWVRQAPGKGLEWVAVIWFDGSIKYYADSVKGRFTISRDNSKNTLYLQMNSLRAEDTAIYYCARGQLVQDFWGRGTLVTVSS
VL: DIQMTQSPSTLSASVGDRVTITCRASQSISSWLAWYQQKPGKAPNLLMYKASNLESGVPSRFSGSGSGTEFTLTITSLQPDDFASYYCQQYKSNPLTFGGGTKVEIKR
For B7, the binding result in the assay with mouse LIFR-ECD protein is listed as “no binding (tested: 100 nM)”.

B8: PR301211 (antibody, human IgG1, kappa, V domains shown)
VH: QVQLVESGGGVVQPGRSLRLSCAASGFTFSSYGMHWVRQAPGKGLEWVAVIWFDGSLKYYADSVKGRFAISRDNSKNTLYLQMNSLRAEDTAIFYCARGQLVQDLWGRGTLVTVSS
VL: DIQMTQSPSTLSASVGDRVTITCRASQSISSWLAWYQQKPGKAPNLLMYKASNLESGVPSRFSGSGSGTEFTLTITSLQPDDFASYYCQQYKSNPLTFGGGTKVEIKR
As for B8, the Span in assay [1] was found to be 15900; in assay [2], 5800.

B9: PR301218 (antibody, human IgG1, kappa, V domains shown)
VH: QVQLVESGGGVVQPGRSLRLSCAASGFTFSSYGMHWVRQAPGKGLEWVAVIWFDGSVKYYADSVKGRFTISRDNSKNTLYLQMNSLRAEDTAIYYCARGQLVQDFWGRGTLVTVSS
VL: DIQMTQSPSTLSASVGDRVTITCRASQSISSWLAWYQQKPGKAPNLLMYKASNLESGVPSRFSGSGSGTEFTLTITSLQPDDFASYYCQQYKSNPLTFGGGTKVEIKR
For B9, the binding result in the assay with mouse LIFR-ECD protein is reported as “no binding (tested: 100 nM)”.

B10: PR301195 (antibody, human IgG1, kappa, V domains shown)
VH: QVQLVESGGGVVQPGRSLRLSCAASGFTFSSYGMNWVRQAPGKGLEWVAVIWFDGSIKYYADSVKGRFTISRDNSKNTLYLQMNSLRAEDTAIYYCARGQLVQDFWGRGTLVTVSS
VL: DIQMTQSPSTLSASVGDRVTITCRASQSISSWLAWYQQKPGKAPNLLMYKASNLESGVPSRFSGSGSGTEFTLTITSLQPDDFASYYCQQYKSNPLTFGGGTKVEIKR
For the molecule B10, the binding result with mouse LIFR-ECD protein was “no binding (tested: 100 nM)”.

B11: PR301196 (antibody, human IgG1, kappa, V domains shown)
VH: QVQLVESGGGVVQPGRSLRLSCAASGFTFSSYGMNWVRQAPGKGLEWVAVIWFDGSIKYYADSVKGRFTISRDNSKNTLYLQMNSLRAEDTAIYYCARGQLVQDFWGRGTLVTVSS
VL: DIQMTQSPSTLSASVGDRVTITCRASQSISSWLAWYQQKPGKAPNLLMYKASNLENGVSSRFSGSGSGTEFTLTITSLQPDDFATYYCQQYKSNPLTFGGGTKVEIKR
Consider B11, for which, in the assay with mouse LIFR-ECD protein, the binding result was “no binding (tested: 100 nM)”.

B12: PR300516 (antibody, human IgG1, kappa, V domains shown)
VH: QVQLVESGGGVVQPGRSLRLSCAASGFTFSSYGMHWVRQAPGKGLEWVAVIWYDGNNKYYADSVKGRFTISRDNSKNTLYLQMNSLRAEDTAVYYCARDGESSMVRGLLNWFDPWGQGTLVTVSS
VL: not shown
On to B12, for which the Span in assay [1] is 19800; in assay [2] it was 6880. Besides, the binding result with mouse LIFR-ECD protein is reported as “no binding (tested: 100 nM)”.

Values taken from patent US20250136702A1 (NONA BIOSCIENCES SUZHOU, published 2025).
